In the supplement of paper PMC10567573:
± gives the standard deviation.

Test: protein stability index of a GFP-peptide fusion (GPS, HEK-293T) (PSI 1-6); higher = more stable
Conditions: c terminus: a fixed tail appended
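Also: 24-mer peptide tiles fused after GFP, lentivirally expressed, FACS-sorted into six equal bins by GFP/DsRed ratio, decoded by Illumina sequencing, PSI is the read-weighted mean bin number.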

Sequence | protein stability index (treatment: DMSO) | protein stability index (treatment: MLN4924 1 uM, 8 h)
SFIKNSDSFDKFEFCEPAFVVGNC [PCMTD1] | 2.37 ± 0.11 | 2.62 ± 0.22
YYHRRNEMTTTDDLDFKHHNYKEM [CPXM2] | 3.22 ± 0.33 | 3.35 ± 0.25
YFYDPIERDIEIGFLPWLMNEVEK [RSPH3] | 2.04 ± 0.74 | 2.42 ± 0.25
SSGRELGRPKELQPKKLHLCPLCG [ZNF263] | 3.53 ± 0.2 | 3.99 ± 0.58
LKISPVTLKEAYVQKLVKVCTDTD [TENT5C] | 2.94 ± 0.16 | 2.91 ± 0.14
RLSVLLNLLPAAGELQESGLALCP [SMG5] | 2.02 ± 0.39 | 2.07 ± 0.18
MEEMSGESVVSSAVPAAATRTTSF [KCTD10] | 4.76 ± 0.28 | 4.82 ± 0.49
DVQLLHSWNNNDRSLNVFVKEDDK [SPSB1] | 4.88 ± 0.14 | 4.97 ± 0.18
HTGERPFQCNQCGASFTQKGNLLR [IKZF1] | 2.21 ± 0.29 | 2.79 ± 0.52
SERPLEDLRLRLDHLGWVARGTGS [RTN2] | 2.63 ± 0.53 | 3.2 ± 0.58
LTAALLTFDTGCLTLSQYILLDPI [POMT2] | 3.36 ± 0.32 | 3.12 ± 0.14
TEVLRNMGFAAKAMKSVHENMDLN [CHMP4C] | 3.3 ± 0.34 | 3.46 ± 0.16
LIGDLIGHSSSVEMFLYFEDHGLV [WDR41] | 2.57 ± 0.51 | 2.83 ± 0.81
LMCFDPDTDKWIQKAPMTTVRGLH [KLHL13] | 2.57 ± 0.18 | 2.64 ± 0.23
LRNIQGLFAPLKLQMEFKAVQQVQ [POMP] | 2.25 ± 0.44 | 2.28 ± 0.11
CLTLTPRPATEAELLTCHSAEYVG [HDAC6] | 3.48 ± 0.16 | 3.43 ± 0.16
YMLFDPKDSVMQQNLVYYRFHRAR [P3H4] | 2.26 ± 0.25 | 2.27 ± 0.53
MVSNPVHGLPFLPGTSFKDSTKTA [EFHC1] | 3.87 ± 0.24 | 3.97 ± 0.25
KWRKVGRSLQRGCRALRDPALDSL [TRADD] | 2.19 ± 0.16 | 2.54 ± 0.13
KPSENHPLHNSGLLSLDPVQDKTP [MED27] | 4.984 ± 0.04 | 5.02 ± 0.22
KKDTGHIYAMKILRKSDMLEKEQV [STK38L] | 3.36 ± 0.39 | 3.54 ± 0.21
PADCKRKEEAGAPGGGAGMAAGFP [CEBPB] | 5.12 ± 0.35 | 5.29 ± 0.098
WQRQMDQPQDRNQALGTHRPVNKL [RASAL3] | 4.39 ± 0.35 | 4.49 ± 0.14

Sequence | protein stability index (treatment: DMSO) | protein stability index (treatment: MLN4924 1 uM, 8 h)
CAVLLSAVQAQAGWLQHDFGHLSV [FADS1] | 3.25 ± 0.5 | 3.3 ± 0.65
DPQLEIAYRGNCKDVSRCVAERKY [SMOC2] | 4.04 ± 0.32 | 4.12 ± 0.11
MCTKMEQPFYHDDSYTATGYGRAP [JUNB] | 3.19 ± 0.19 | 3.25 ± 0.24
LLISSCDWMAAMFGGPFVESSTRE [RHOBTB2] | 2.68 ± 0.52 | 2.37 ± 0.48
LEVNKPKNRYANVIAYDHSRVLLS [PTPRD] | 2.54 ± 0.31 | 2.71 ± 0.21
LMKHQTNISELKRTFLETSTDTAV [EPB41L3] | 3.68 ± 0.79 | 3.92 ± 0.38
RLALRQRLKCRSFKWYLENVYPEM [GALNT9] | 1.95 ± 0.22 | 2.35 ± 0.18
TFPDLESEFQAALSRKVAKLVHFL [MAGEA6] | 2.27 ± 0.2 | 2.22 ± 0.21
EDYGHWLLCLRAVTHREGAPPLPG [PLEKHN1] | 2 ± 0.14 | 2.16 ± 0.26
PPVVAHYDMSDTNSDPEVVNVDNL [C18orf25] | 5.43 ± 0.18 | 5.46 ± 0.31
DDILYHVKGMQRIVNQWSEKFSDE [DLC1] | 3.52 ± 0.14 | 3.75 ± 0.28
ISRLEQCGINANDVKKLEEAGFHT [RAD51] | 3.58 ± 0.15 | 3.9 ± 0.11
GEEQAQLLHVSSPNLASDSDLSRR [KCNA1] | 5.36 ± 0.16 | 5.33 ± 0.11
RNLYAYIQKLTQIETGENVTGMEL [PTPRD] | 2.41 ± 0.26 | 2.29 ± 0.53
FAAEAGHIDIVKELIKWRAAIVVN [FEM1B] | 2.3 ± 0.28 | 2.02 ± 0.55
VEVDAPKSQDLAKIMADIRAQYDE [KRT18] | 4.76 ± 0.12 | 4.71 ± 0.17
DLLNVCMRHVEKMCKADLSRNFIE [TRIM29] | 3.09 ± 0.21 | 2.87 ± 0.28
SVILRRYFLELTQSFIIPLERYVA [DENND6A] | 2.33 ± 0.63 | 2.88 ± 0.75
RYQQSKAAALKCQLCEKAPKEATV [TRIM9] | 3.85 ± 0.28 | 4.01 ± 0.14
LLDDGQQASPYHPGSCGAGAPSPG [ELF3] | 4.71 ± 0.1 | 4.57 ± 0.39
SQYFRSLFSSHPPLGGGVGGQDGL [KLHL14] | 2.72 ± 0.17 | 2.87 ± 0.21
FETMAIEIEQLLARLTGVNDKMAE [GOSR1] | 3.06 ± 0.2 | 3.15 ± 0.38
HTKPSQAPAVEVAPAGASYNPSFE [NOP53] | 4.86 ± 0.36 | 4.95 ± 0.19

Sequence | protein stability index (treatment: DMSO) | protein stability index (treatment: MLN4924 1 uM, 8 h)
LMSGALAVNQKIDRESLCGASTSC [PCDHGC5] | 3.67 ± 0.4 | 3.6 ± 0.095
AEPGFEPADCKRKEEAGAPGGGAG [CEBPB] | 5.48 ± 0.47 | 5.56 ± 0.15
VGHARGLHAWQINWPARQRGTHAV [SPSB4] | 2.96 ± 0.43 | 2.87 ± 0.24
HQRIHTGEKPYECVQCGKSYSQSS [ZNF24] | 3.79 ± 0.4 | 3.92 ± 0.28
PPRRSRSRSHDRLPYQRRYRERRD [CLK3] | 4.51 ± 0.29 | 4.72 ± 0.32
QEYQVLLDVRARLECEINTYRSLL [KRT33B] | 2.25 ± 0.34 | 2.19 ± 0.26
HFPYDLHLRSQSLTMQDELNAVFH [NEUROD6] | 2.81 ± 0.19 | 2.92 ± 0.27
DPEPSGPHLPRVMLPGVLAGVSAE [SCNN1D] | 4.59 ± 0.43 | 4.33 ± 0.21
KDEWHKVFDLPESLGGIRACTLTV [KLHL13] | 2.89 ± 0.63 | 2.89 ± 0.83
MMSLTKLADKELVHMISWAKKIPG [ESR2] | 2.17 ± 0.19 | 2.16 ± 0.12
PGGGRLLLSTSLDAKDELEERLER [INTS3] | 4.94 ± 0.3 | 4.84 ± 0.15
AESRGHSKGWGRNYASIIRRDCMW [MYCL] | 2.23 ± 0.2 | 2.61 ± 0.39
IVIQTYYRQWHAKIFVENLRRQKS [IQUB] | 2.453 ± 0.011 | 3.12 ± 0.52
TPPHLTSAMAENILAAACESETRK [NOL4L] | 4.16 ± 0.47 | 4.35 ± 0.2
FRKEIKSKSADNQEYFERHRWPPV [RHOBTB1] | 3.45 ± 0.44 | 3.26 ± 0.16
SFSLVKLVLRRQLKNKCCPPPCKF [C22orf31] | 2.29 ± 0.47 | 2.35 ± 0.41
LLAPGEQSLPCTERKPAATARLSR [KISS1] | 4.46 ± 0.37 | 4.72 ± 0.18
YQEIFQQLQRSWVKMDQKSKHLKE [TRIM43] | 2.41 ± 0.32 | 2.6 ± 0.32
SEIKNYNFQQPGFTSGTGHFTAMV [GLIPR2] | 2.41 ± 0.58 | 2.77 ± 0.16
GLLLESLVPFIVNDNITNNFFRFL [DYNC2LI1] | 2.9 ± 0.44 | 3.17 ± 0.62
RNGMASEGLNSSLCSPGHERRGTP [PSD2] | 4.72 ± 0.34 | 4.61 ± 0.28
MQVDKKRVYLATDDPSLLKEAKTK [FUT8] | 4.06 ± 0.21 | 3.92 ± 0.32
HCMLVSNRVSWWGSTLAMLQRLKE [ZBED1] | 3.29 ± 0.18 | 3.46 ± 0.37

Sequence | protein stability index (treatment: DMSO) | protein stability index (treatment: MLN4924 1 uM, 8 h)
IYTNRYETNEEDKTLQEIYRKYRK [FBXO39] | 2.96 ± 0.32 | 3.58 ± 0.61
LTGLQLKLGPALKIYEYHVKPLQT [SAMD13] | 2.26 ± 0.29 | 2.47 ± 0.42
CGADVNVRDSDDNSPLHIAALNNH [FEM1C] | 2.9 ± 0.34 | 2.83 ± 0.24
NFGEFKCSDSDKKCHLWTAMDLGF [CLCN6] | 2.19 ± 0.32 | 2.34 ± 0.46
VLAARSPVFNAMFEHEMEESKKNR [SPOPL] | 3.73 ± 0.2 | 4.27 ± 0.29
KETVNVKTVCGYYTSAGTYGLDSV [GMCL1] | 2.48 ± 0.29 | 2.68 ± 0.3
RYFGARAILGEQRPRQRQRVYPKC [TCF25] | 3.84 ± 0.32 | 3.58 ± 0.21
FITRQLKGLEDTKSPQFNRYFYLL [PDS5B] | 2.01 ± 0.37 | 2.11 ± 0.16
KMSLYSEADSGYGSYGGFASAPTT [TRIM9] | 3.15 ± 0.36 | 3.18 ± 0.12
SGGSSSSFRAGSKGLSGGFGSRSL [KRT71] | 3.32 ± 0.18 | 3.14 ± 0.13
TASTKNCMVGYDMGATRCDFTLSK [CPXM2] | 2.64 ± 0.4 | 3.03 ± 0.51
VIDLFDEQGLSALHLAAQGRHAQT [RIPK4] | 3.05 ± 0.35 | 2.87 ± 0.14
GLKADTLKERYQKIGDTKRNTPIE [CSNK1G1] | 4.36 ± 0.26 | 4.53 ± 0.12
MVGLILGPFGVNHGVELHSDVIEY [PCMTD2] | 3 ± 1.1 | 2.82 ± 0.64
NLTSPASITFTTGLEAPRDLEAKE [TNXB] | 5.21 ± 0.51 | 5.51 ± 0.36
SIYDNVPGSILYSSSGDLADLENE [DLC1] | 4.843 ± 0.034 | 4.75 ± 0.12
NAANRTGYVPSNYVERKNSLKKGS [NCK2] | 4.33 ± 0.3 | 4.45 ± 0.18
GGIPALVKMLGSPVDSVLFYAITT [CTNNB1] | 3.19 ± 0.79 | 3.07 ± 0.99
RAKLDELEGALHQAKEELARMLRE [KRT71] | 2.97 ± 0.36 | 3.7 ± 0.33
ISSMADFWDFAQGPLLDSLYWTKW [PKD2L1] | 2.85 ± 1.3 | 2.53 ± 1.6
